Assay results published in PMC13043311, “2′-O-Methyl-guanosine RNA fragments antagonize TLR7 and TLR8 to limit autoimmunity”.
Substitutions are numbered along the chain they refer to.

How the values were obtained:
Details in all cases: protein: recombinant; chain copies: 2; single-stranded
TLR7 F507L = molecular target: T1, TLR7 F507L (Macaca mulatta, UniProt B3Y653 27-839, F507L); experiment: SPR; mean computed from runs 16±2, 18±2, 20±6; SPR with recombinant TLR7/TLR8; buffer, pH and temperature not in the material
T1 sequence: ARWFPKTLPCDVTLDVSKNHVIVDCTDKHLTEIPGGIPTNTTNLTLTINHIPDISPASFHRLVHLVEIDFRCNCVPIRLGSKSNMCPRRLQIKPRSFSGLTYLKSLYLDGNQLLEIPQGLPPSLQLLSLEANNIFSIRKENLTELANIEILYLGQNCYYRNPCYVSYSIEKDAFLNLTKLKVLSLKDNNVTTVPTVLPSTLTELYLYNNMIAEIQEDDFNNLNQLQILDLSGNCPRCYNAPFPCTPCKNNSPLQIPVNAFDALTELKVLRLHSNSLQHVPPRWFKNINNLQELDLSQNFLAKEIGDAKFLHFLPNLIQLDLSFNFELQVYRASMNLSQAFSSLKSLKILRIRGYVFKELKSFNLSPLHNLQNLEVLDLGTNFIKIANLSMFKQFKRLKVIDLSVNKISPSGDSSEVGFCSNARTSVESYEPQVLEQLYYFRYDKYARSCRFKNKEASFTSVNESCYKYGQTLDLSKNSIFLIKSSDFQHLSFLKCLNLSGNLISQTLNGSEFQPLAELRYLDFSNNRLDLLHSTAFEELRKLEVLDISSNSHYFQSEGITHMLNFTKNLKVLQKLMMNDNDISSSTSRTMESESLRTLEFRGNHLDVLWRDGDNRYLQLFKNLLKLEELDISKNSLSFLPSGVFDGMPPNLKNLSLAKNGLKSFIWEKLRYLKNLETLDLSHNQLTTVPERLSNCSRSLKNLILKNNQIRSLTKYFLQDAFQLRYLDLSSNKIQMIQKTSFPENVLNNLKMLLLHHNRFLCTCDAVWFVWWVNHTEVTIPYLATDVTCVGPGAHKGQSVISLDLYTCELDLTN

TLR7 F507S = molecular target: T2, TLR7 F507S (Macaca mulatta, UniProt B3Y653 27-839, F507S); experiment: SPR; mean computed from runs 36±1, 46±2, 42±6; SPR with recombinant TLR7/TLR8; buffer, pH and temperature not in the material
T2 sequence: T1 sequence with L481S

TLR7 T406S = molecular target: T3, TLR7 T406S (Macaca mulatta, UniProt B3Y653 27-839, T406S); experiment: SPR; mean computed from runs 0.5±0.09, 0.6±0.1, 0.6±0.1; SPR with recombinant TLR7/TLR8; buffer, pH and temperature not in the material
T3 sequence: T1 sequence with T380S, L481F

With GUC (XNA, 2'-OMe G1, RNA U2 C3; phosphorothioate linkages) [mGrUrC PS] the Kd (TLR7 F507L) was 18 µM, the Kd (TLR7 F507S) was 41.3 µM and the Kd (TLR7 T406S) was 0.57 µM.
